# From US20100291074A1 (COLUMBIA UNIVERSITY IN THE CITY OF NEW YORK, published 2010)
# B1: purified recombinant human CypD protein (Cyclophilin D) (enzyme)
# chain: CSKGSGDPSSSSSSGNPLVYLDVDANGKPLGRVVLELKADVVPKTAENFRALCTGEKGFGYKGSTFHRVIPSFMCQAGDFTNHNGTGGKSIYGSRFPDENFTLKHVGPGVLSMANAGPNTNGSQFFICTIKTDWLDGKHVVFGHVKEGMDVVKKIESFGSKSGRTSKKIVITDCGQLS
# notes: also called human mitochondrial CypD protein; PPIF
# Key:
# monomeric Aβ40 = target: T1, monomeric Aβ40 (UniProt P05067 672-711); test: SPR (BIAcore 3000), Aβ immobilized on a CM5 chip, CypD in the mobile phase, 25° C.; monomeric Aβ40
# T1 construct: domain: Aβ(1-40); Immobilized on a CM5 chip by amine coupling for SPR; also called Aβ(1-40); amyloid beta
# Protocol: (§1) Aβ(1-40) and Aβ(1-42), including monomeric and oligomeric Aβ, were used in the binding assay. The kinetic parameters evaluating binding affinity were analyzed as described in the Examples. […] The evaluating curves (red line) were overlaid with experimental data.
# (§2) The monomeric and oligomeric Aβ were prepared as described and characterized by atomic force microscopy. SPR studies were performed on a BIAcore 3000 system (BIAcore AB, Uppsala, Sweden). Aβ (500 μg/ml) was immobilized using the standard amino coupling on a research-grade CM5 sensor chip. […] The binding curves were analyzed with the global fitting model using BIA evaluation version 4.0.1 (BIAcore AB).
# monomeric Aβ42 = target: T2, monomeric Aβ42 (UniProt P05067 672-713); test: SPR (BIAcore 3000), Aβ immobilized on a CM5 chip, CypD in the mobile phase, 25° C.; monomeric Aβ42
# T2 construct: domain: Aβ(1-42); Immobilized on a CM5 chip by amine coupling for SPR; also called Aβ(1-42); amyloid beta
# Protocol: as §1, §2
# oligomeric Aβ40 = target: T3, oligomeric Aβ40 (UniProt P05067 672-711); test: SPR (BIAcore 3000), Aβ immobilized on a CM5 chip, CypD in the mobile phase, 25° C.; oligomeric Aβ40
# T3 construct: domain: Aβ(1-40); Oligomer; Immobilized on a CM5 chip for SPR; also called Aβ(1-40); amyloid beta
# Protocol: as §1, §2
# oligomeric Aβ42 = target: T4, oligomeric Aβ42 (UniProt P05067 672-713); test: SPR (BIAcore 3000), Aβ immobilized on a CM5 chip, CypD in the mobile phase, 25° C.; oligomeric Aβ42
# T4 construct: domain: Aβ(1-42); Oligomer; Immobilized on a CM5 chip for SPR; also called Aβ(1-42); amyloid beta
# Protocol: as §1, §2
# T3 sequence (P05067 672-711 limits assumed): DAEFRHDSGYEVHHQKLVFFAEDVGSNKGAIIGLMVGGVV
# T1 sequence (P05067 672-711 limits assumed): as above
# T2 sequence (P05067 672-713 limits assumed): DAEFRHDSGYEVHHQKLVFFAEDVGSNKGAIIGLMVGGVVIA
# T4 sequence (P05067 672-713 limits assumed): as above
binder,measurement,setting,value
B1,Kd,monomeric Aβ40,1700 nM
same,Kd,monomeric Aβ42,164 nM
same,Kd,oligomeric Aβ40,227 nM
same,Kd,oligomeric Aβ42,4 nM
